For 2 molecules, staining, fold over background (fold over background), IC50 D4 (ug/ml), cell killing of MDA-MB-468 cells, 1 h treatment and IC50 D6 (ug/ml), cell killing of MDA-MB-468 cells, 1 h treatment results are on record in patent US20100151003A1.

Experiment [1] deals with human EGFR on tumor cells (human) (UniProt P00533). Put plainly: FACS, A431 cells preincubated with 2 ug EGF, 2 uM bio-P190:avidin complex, 4 °C. (In flow cytometry, cells or beads pass a laser one at a time.)
For experiment [2] the target is unchanged. As to the kind of experiment: cell-based or functional assay.

Bridges are numbered along the chain shown (N, C = ends). Where no end group is shown, it is not given here. DSPE = distearoylphosphatidylethanolamine; PEG3400 = polyethylene glycol, 3400 Da; PEG = not defined here

Turning to DPCTWEVWGRECLQ-{PEG-biotin} (disulfide 3-12 (inferred); reading uncertain) [Biotinylated-PEGylated P190], the staining, fold over background (fold over background) in experiment [1] worked out at 20.

In experiment [2], {DSPE-PEG3400}-DPCTWEVWGRECLQ (disulfide 3-12; not fully specified; also: inserted in liposomes) [P190-PEG-DSPE conjugate inserted in STEALTH liposomes] showed an IC50 D4 (ug/ml), cell killing of MDA-MB-468 cells, 1 h treatment of 120 µg/mL and an IC50 D6 (ug/ml), cell killing of MDA-MB-468 cells, 1 h treatment of 35 µg/mL.
